According to article PMC9332313, “Folding and Binding Mechanisms of the SH2 Domain from Crkl” (Biomolecules, 2022):
Square brackets hold non-standard residues; d marks the D form. Ends that are not written are not given here. * marks the point of attachment. pY = N[C@@H](Cc1ccc(OP(=O)(O)O)cc1)C(=O)O; Dansyl = CN(C)c1cccc2c(S(=O)(=O)*)cccc12

Experiments:
Conditions in all cases: both partners purified
[1] = target: T1, SH2 domain of Crkl protein (residues 1-111), H33A variant (UniProt P46109 1-111, H33A); assay: stopped-flow fluorescence kinetics (FRET); dansyl-Pax112-123 constant at 2 μM mixed with Crkl-SH2 2 to 10 μM (pseudo-first-order, kon); koff by displacement of the preincubated 2 µM complex with excess non-dansylated Pax112-123 (30 μM); 283 K; 50 mM TrisHCl pH 8.5, 0.5 M NaCl
T1 construct: Crkl adaptor protein, SH2 domain, residues 1-111, His33 replaced by alanine; Site-directed mutant of m1 (QuikChange); source: E. coli BL21 (DE3), purified (HisTrap nickel column, desalting); not shown: His tag, N-terminal, kept
T1 sequence (P46109 1-111 H33A): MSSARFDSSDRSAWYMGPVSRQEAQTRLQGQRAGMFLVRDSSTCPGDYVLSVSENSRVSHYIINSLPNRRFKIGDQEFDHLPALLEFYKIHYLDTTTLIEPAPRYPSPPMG

[2] = target: T2, SH2 domain of Crkl protein (residues 1-111), wild type (UniProt P46109 1-111); assay: as above
T2 construct: Crkl adaptor protein, SH2 domain, residues 1-111; Subcloned in pET28b+; all experiments were done on the N-terminally His-tagged protein; also called Crkl-SH2; Crkl SH2 domain; source: E. coli BL21 (DE3), purified (HisTrap nickel column, desalting); not shown: His tag, N-terminal, kept
T2 sequence (P46109 1-111): as the sequence (P46109 1-111 H33A) above, with A33H counted along it

[3] = target: T3, SH2 domain of Crkl protein (residues 1-111), H91A variant (UniProt P46109 1-111, H91A); assay: as above
T3 construct: Crkl adaptor protein, SH2 domain, residues 1-111, His91 replaced by alanine; Site-directed mutant of m1 (QuikChange); source: E. coli BL21 (DE3), purified (HisTrap nickel column, desalting); not shown: His tag, N-terminal, kept
T3 sequence (P46109 1-111 H91A): as the sequence (P46109 1-111 H33A) above, with A33H, H91A counted along it

[4] = target: T4, SH2 domain of Crkl protein (residues 1-111), H80A variant (UniProt P46109 1-111, H80A); assay: as above
T4 construct: Crkl adaptor protein, SH2 domain, residues 1-111, His80 replaced by alanine; Site-directed mutant of m1 (QuikChange); source: E. coli BL21 (DE3), purified (HisTrap nickel column, desalting); not shown: His tag, N-terminal, kept
T4 sequence (P46109 1-111 H80A): as the sequence (P46109 1-111 H33A) above, with A33H, H80A counted along it

[5] = target: T2, SH2 domain of Crkl protein (residues …); assay: stopped-flow fluorescence kinetics (FRET); dansyl-Pax112-123 constant at 2 μM mixed with Crkl-SH2 2 to 10 μM (pseudo-first-order, kon); koff by displacement of the preincubated 2 µM complex with excess non-dansylated Pax112-123 (30 μM); 283 K; 50 mM sodium-HEPES pH 7.5, 0.5 M NaCl
[6] = target: T3, SH2 domain of Crkl protein (residues …); assay: as above
[7] = target: T1, SH2 domain of Crkl protein (residues …); assay: stopped-flow fluorescence kinetics (FRET); dansyl-Pax112-123 constant at 2 μM mixed with Crkl-SH2 2 to 10 μM (pseudo-first-order, kon); koff by displacement of the preincubated 2 µM complex with excess non-dansylated Pax112-123 (30 μM); 283 K; 50 mM sodium-acetate pH 5.5, 0.5 M NaCl
[8] = target: T2, SH2 domain of Crkl protein (residues …); assay: as above
[9] = target: T3, SH2 domain of Crkl protein (residues …); assay: as above
[10] = target: T4, SH2 domain of Crkl protein (residues …); assay: as above

- Kd [1]: 2.1 ± 0.3 µM
- koff [1]: 26.9 ± 2.8 s⁻¹
- kon [1]: 1.26e+07 ± 1.4e+06 M⁻¹ s⁻¹
- Kd [2]: 3.5 ± 0.3 µM
- koff [2]: 41.6 ± 0.9 s⁻¹
- kon [2]: 1.2e+07 ± 1.1e+06 M⁻¹ s⁻¹
- Kd [3]: 2.6 ± 0.1 µM
- koff [3]: 34.9 ± 0.5 s⁻¹
- kon [3]: 1.36e+07 ± 600000 M⁻¹ s⁻¹
- Kd [4]: 3.2 ± 0.5 µM
- koff [4]: 32.5 ± 2.7 s⁻¹
- kon [4]: 1.02e+07 ± 1.2e+06 M⁻¹ s⁻¹
- Kd [5]: 2.8 ± 0.4 µM
- koff [5]: 28.6 ± 0.5 s⁻¹
- kon [5]: 1.04e+07 ± 1.4e+06 M⁻¹ s⁻¹
- Kd [6]: 2.6 ± 0.1 µM
- koff [6]: 25.9 ± 0.3 s⁻¹
- kon [6]: 1e+07 ± 500000 M⁻¹ s⁻¹
- Kd [7]: 3.4 ± 0.4 µM
- koff [7]: 22.8 ± 2.2 s⁻¹
- kon [7]: 6.7e+06 ± 400000 M⁻¹ s⁻¹
- Kd [8]: 3 ± 0.3 µM
- koff [8]: 25.6 ± 0.4 s⁻¹
- kon [8]: 8.4e+06 ± 700000 M⁻¹ s⁻¹
- Kd [9]: 4.3 ± 0.2 µM
- koff [9]: 24.1 ± 0.4 s⁻¹
- kon [9]: 5.6e+06 ± 300000 M⁻¹ s⁻¹
- Kd [10]: 2.5 ± 0.5 µM
- koff [10]: 20 ± 3.7 s⁻¹
- kon [10]: 7.9e+06 ± 900000 M⁻¹ s⁻¹
B1: dansylated Pax_(112–123) peptide (Dans-GEEEHV-pY-SFPNK) (peptide)
peptide: Dansyl-GEEEHV[pY]SFPNK
notes: The dansyl group is the FRET acceptor of Trp14 of the SH2 domain; source: synthetic peptide, bought: GenScript
